This series concerns the molecule itself. Description: native gel or EMSA + SEC + AUC; free TCF4 and TCF4 with E-box dsDNA; buffer S (20 mM Tris-HCl, 150 mM NaCl, 2 mM TCEP, pH 7.5); SV-AUC at 20 °C, 2.5, 5.0 and 7.5 µM dTCF4, molecular weight fixed at that of the dimer (96.5 kDa); SEC on Superdex 200 Increase 10/300; native PAGE on 5% gel in 0.5 x TBE at 4 °C. Background: Mobility shift assays separate free from complexed probe on a gel.

B1: Transcription factor 4 (TCF4), human isoform I- (natural protein, UniProt P15884-16 1-451, looked up)
chain: MQDGHHSSDPWSSSSGMNQPGYAGMLGNSSHIPQSSSYCSLHPHERLSYPSHSSADINSSLPPMSTFHRSGTNHYSTSSCTPPANGTDSIMANRGSGAAGSSQTGDALGKALASIYSPDHTNNSFSSNPSTPVGSPPSLSAGTAVWSRNGGQASSSPNYEGPLHSLQSRIEDRLERLDDAIHVLRNHAVGPSTAMPGGHGDMHGIIGPSHNGAMGGLGSGYGTGLLSANRHSLMVGTHREDGVALRGSHSLLPNQVPVPQLPVQSATSPDLNPPQDPYRGMPPGLQGQSVSSGSSEIKSDDEGDENLQDTKSSEDKKLDDDKKDIKSITSNNDDEDLTPEQKAEREKERRMANNARERLRVRDINEAFKELGRMVQLHLKSDKPQTKLLILHQAVAVILSLEQQVRERNLNPKAACLKRREEEKVSSEPPPLSLAGPHPGMGDASNHMGQM
notes: Transcription factor 4 (TCF4), human, isoform I- (UniProt P15884-16), full length; lacks amino acids 1-216 of the canonical isoform B- (P15884-1); bHLH domain at residues 348-401; dimer 96.5 kDa; numbers count on: isoform I- (P15884-16); cDNA synthesised and codon-optimised, cloned into pET-SUMO; also called TCF4 I-; dTCF4 (dimeric TCF4); source: E. coli ArcticExpress, purified (Ni-NTA with 6 M …)
As for B1, the binding result is “binds”.

The values are drawn from article PMC11948756, “The molecular properties of the bHLH TCF4 protein as an intrinsically disordered hub transcription factor” (Cell Communication and Signaling : CCS, 2025).
